Results published in patent publication US20210032338A1.

Molecular target: T Cell Receptor Gamma Variable 9 (TRGV9) on human γδ T cells (human) (UniProt Q99603)
Experiment: binding to γδ-enriched T cells, 1 h at 37 °C (panel γδ T-cell binding)

- EC50: 0.56 nM
B1: VG9B2, chimera human IgG1 mAb (silent Fc) of mouse anti-human TCR Vγ9 clone B3 (antibody, V domains shown)
VH: QGQMQQSGAELVKPGASVKLSCKTSGFTFSSNYISWLKQKPGQSLEWIAWIHGGTGGIGYNQKFTGKAQLTVDTSSTTAYMQFSSLTTEDSAIYYCARRGYGAWFAYWGQGTLVTVSA
VL: DIQMTQSPASLSASVGETVTITCRASENIHNYLAWYQQKQGKSPQLLVYNAKTLADGVPSRFSGSGSGTQYSLKINSLQPEDFGNYYCQHFWSYPLTFGAGTKLELK
